# Measurements taken from PMC9482650, “Quantitative fragmentomics allow affinity mapping of interactomes” (Nature Communications, 2022).
# T1: HTRA4, P83105
# T1 sequence (P83105 378-476, limits assumed, looked up): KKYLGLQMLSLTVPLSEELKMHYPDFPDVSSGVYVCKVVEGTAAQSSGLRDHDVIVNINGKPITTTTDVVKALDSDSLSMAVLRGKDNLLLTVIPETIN
# T2: FRMPD1, Q5SYB0
# T2 sequence (Q5SYB0 52-145, limits assumed, looked up): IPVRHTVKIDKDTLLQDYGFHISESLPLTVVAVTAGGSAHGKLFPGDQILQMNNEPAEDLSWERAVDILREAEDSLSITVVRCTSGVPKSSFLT
# T3: CARD11, Q9BXL7
# T3 sequence (Q9BXL7 662-765, limits assumed, looked up): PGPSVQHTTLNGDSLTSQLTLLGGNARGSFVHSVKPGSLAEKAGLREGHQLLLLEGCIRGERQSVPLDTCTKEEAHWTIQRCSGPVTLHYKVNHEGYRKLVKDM
# T4: APBA1_2, Q02410
# T4 sequence (Q02410 742-832, limits assumed, looked up): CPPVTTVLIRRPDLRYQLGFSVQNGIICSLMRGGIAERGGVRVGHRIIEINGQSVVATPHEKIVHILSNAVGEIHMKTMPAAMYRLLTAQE
# T5: PDZD7_3, Q9H5P4
# T5 sequence (Q9H5P4 857-944, limits assumed, looked up): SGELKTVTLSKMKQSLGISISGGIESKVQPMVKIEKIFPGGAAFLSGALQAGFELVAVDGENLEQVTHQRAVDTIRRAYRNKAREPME
# T6: SHANK1, Q9Y566
# T6 sequence (Q9Y566 658-767, limits assumed, looked up): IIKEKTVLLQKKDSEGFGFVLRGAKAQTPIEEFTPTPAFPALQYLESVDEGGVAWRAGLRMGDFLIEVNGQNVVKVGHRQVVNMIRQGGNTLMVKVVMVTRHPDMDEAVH
# T7: NHERF3_4, Q5T2W1
# T7 sequence (Q5T2W1 373-468, limits assumed, looked up): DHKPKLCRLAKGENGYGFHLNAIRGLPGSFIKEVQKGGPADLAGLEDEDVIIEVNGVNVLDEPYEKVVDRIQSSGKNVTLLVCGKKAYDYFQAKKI
# T8: PARD3B_1, Q8TEW8
# T8 sequence (Q8TEW8 196-299, limits assumed, looked up): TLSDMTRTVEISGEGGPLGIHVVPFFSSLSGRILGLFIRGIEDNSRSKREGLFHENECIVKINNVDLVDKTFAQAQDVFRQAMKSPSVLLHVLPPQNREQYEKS
# T9: GRIP1_4, Q9Y3R0
# T9 sequence (Q9Y3R0 467-571, limits assumed, looked up): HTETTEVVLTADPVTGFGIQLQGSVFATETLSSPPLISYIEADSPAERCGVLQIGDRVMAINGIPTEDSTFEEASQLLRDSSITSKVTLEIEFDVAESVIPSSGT
# T10: NHERF3_3, Q5T2W1
# T10 sequence (Q5T2W1 238-333, limits assumed, looked up): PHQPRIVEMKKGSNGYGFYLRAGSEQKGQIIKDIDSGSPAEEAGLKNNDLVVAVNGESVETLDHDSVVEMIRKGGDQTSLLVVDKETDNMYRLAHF
# T11: LIN7B, Q9HAP6
# T11 sequence (Q9HAP6 88-185, limits assumed, looked up): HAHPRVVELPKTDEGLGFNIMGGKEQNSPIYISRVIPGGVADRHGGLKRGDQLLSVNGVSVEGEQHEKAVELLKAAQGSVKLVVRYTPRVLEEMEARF
# T12: DVL3, Q92997
# T12 sequence (Q92997 244-331, limits assumed, looked up): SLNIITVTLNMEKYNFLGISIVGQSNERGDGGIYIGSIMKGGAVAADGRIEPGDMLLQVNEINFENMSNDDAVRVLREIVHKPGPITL
# T13: MPP2, Q14168
# T13 sequence (Q14168 180-250, limits assumed, looked up): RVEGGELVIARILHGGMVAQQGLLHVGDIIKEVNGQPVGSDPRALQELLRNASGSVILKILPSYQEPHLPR
# B1: PDLIM2, Q96JY6 (peptide)
# chain: SAPATLSSRA
# B2: SHKBP1, Q8TBC3 (peptide)
# chain: PKMKLNETSF
# Target: GRIP2_4, Q9C0E4
# Sequence (Q9C0E4 446-548): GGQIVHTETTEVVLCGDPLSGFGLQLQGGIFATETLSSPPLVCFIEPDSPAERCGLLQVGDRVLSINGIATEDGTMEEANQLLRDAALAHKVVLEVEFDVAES
# Experiment: holdup assay
# Parameters: key: below the threshold = too weak to quantify, mostly under pKd 3.1 to 4
# Conditions: plain residues with an end cap or a label only (N-terminal biotin on a linker: ahx)
row,pKd,Binder
1,below the threshold,B1
2,below the threshold,B2

# Target: GOPC, Q9HD26
# Experiment: holdup assay
# Parameters: key: below the threshold = too weak to quantify, mostly under pKd 3.1 to 4
# Conditions: plain residues with an end cap or a label only (N-terminal biotin on a linker: ahx)
row,pKd,Binder
1,below the threshold,B1
2,below the threshold,B2

# Target: NHERF4_4, Q86UT5
# Sequence (Q86UT5 464-550): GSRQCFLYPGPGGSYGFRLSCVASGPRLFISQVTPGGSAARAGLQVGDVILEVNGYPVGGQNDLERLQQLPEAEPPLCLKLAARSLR
# Experiment: holdup assay
# Parameters: key: below the threshold = too weak to quantify, mostly under pKd 3.1 to 4
# Conditions: plain residues with an end cap or a label only (N-terminal biotin on a linker: ahx)
row,pKd,Binder
1,below the threshold,B1
2,below the threshold,B2

# Target: T1, HTRA4, P83105
# Experiment: holdup assay
# Parameters: key: below the threshold = too weak to quantify, mostly under pKd 3.1 to 4
# Conditions: plain residues with an end cap or a label only (N-terminal biotin on a linker: ahx)
row,pKd,Binder
1,below the threshold,B1
2,below the threshold,B2

# Target: T2, FRMPD1, Q5SYB0
# Experiment: holdup assay
# Parameters: key: below the threshold = too weak to quantify, mostly under pKd 3.1 to 4
# Conditions: plain residues with an end cap or a label only (N-terminal biotin on a linker: ahx)
row,pKd,Binder
1,below the threshold,B1
2,below the threshold,B2

# Target: T3, CARD11, Q9BXL7
# Experiment: holdup assay
# Parameters: key: below the threshold = too weak to quantify, mostly under pKd 3.1 to 4
# Conditions: plain residues with an end cap or a label only (N-terminal biotin on a linker: ahx)
row,pKd,Binder
1,below the threshold,B1
2,below the threshold,B2

# Target: T4, APBA1_2, Q02410
# Experiment: holdup assay
# Parameters: key: below the threshold = too weak to quantify, mostly under pKd 3.1 to 4
# Conditions: plain residues with an end cap or a label only (N-terminal biotin on a linker: ahx)
row,pKd,Binder
1,below the threshold,B1
2,below the threshold,B2

# Target: T5, PDZD7_3, Q9H5P4
# Experiment: holdup assay
# Parameters: key: below the threshold = too weak to quantify, mostly under pKd 3.1 to 4
# Conditions: plain residues with an end cap or a label only (N-terminal biotin on a linker: ahx)
row,pKd,Binder
1,below the threshold,B1
2,below the threshold,B2

# Target: GORASP2, Q9H8Y8
# Experiment: holdup assay
# Parameters: key: below the threshold = too weak to quantify, mostly under pKd 3.1 to 4
# Conditions: plain residues with an end cap or a label only (N-terminal biotin on a linker: ahx)
row,pKd,Binder
1,below the threshold,B1
2,below the threshold,B2

# Target: T6, SHANK1, Q9Y566
# Experiment: holdup assay
# Parameters: key: below the threshold = too weak to quantify, mostly under pKd 3.1 to 4
# Conditions: plain residues with an end cap or a label only (N-terminal biotin on a linker: ahx)
row,pKd,Binder
1,below the threshold,B1
2,4.21,B2

# Target: T7, NHERF3_4, Q5T2W1
# Experiment: holdup assay
# Parameters: key: below the threshold = too weak to quantify, mostly under pKd 3.1 to 4
# Conditions: plain residues with an end cap or a label only (N-terminal biotin on a linker: ahx)
row,pKd,Binder
1,below the threshold,B1
2,below the threshold,B2

# Target: T8, PARD3B_1, Q8TEW8
# Experiment: holdup assay
# Parameters: key: below the threshold = too weak to quantify, mostly under pKd 3.1 to 4
# Conditions: plain residues with an end cap or a label only (N-terminal biotin on a linker: ahx)
row,pKd,Binder
1,below the threshold,B1
2,below the threshold,B2

# Target: T9, GRIP1_4, Q9Y3R0
# Experiment: holdup assay
# Parameters: key: below the threshold = too weak to quantify, mostly under pKd 3.1 to 4
# Conditions: plain residues with an end cap or a label only (N-terminal biotin on a linker: ahx)
row,pKd,Binder
1,below the threshold,B1
2,below the threshold,B2

# Target: SCRIB_3, Q14160
# Sequence (Q14160 999-1103): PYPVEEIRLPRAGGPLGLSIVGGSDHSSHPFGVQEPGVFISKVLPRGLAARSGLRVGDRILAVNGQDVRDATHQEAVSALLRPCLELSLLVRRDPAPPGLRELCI
# Experiment: holdup assay
# Parameters: key: below the threshold = too weak to quantify, mostly under pKd 3.1 to 4
# Conditions: plain residues with an end cap or a label only (N-terminal biotin on a linker: ahx)
row,pKd,Binder
1,below the threshold,B1
2,4.49,B2

# Target: T10, NHERF3_3, Q5T2W1
# Experiment: holdup assay
# Parameters: key: below the threshold = too weak to quantify, mostly under pKd 3.1 to 4
# Conditions: plain residues with an end cap or a label only (N-terminal biotin on a linker: ahx)
row,pKd,Binder
1,below the threshold,B1
2,below the threshold,B2

# Target: TJP2_1, Q9UDY2
# Sequence (Q9UDY2 24-128): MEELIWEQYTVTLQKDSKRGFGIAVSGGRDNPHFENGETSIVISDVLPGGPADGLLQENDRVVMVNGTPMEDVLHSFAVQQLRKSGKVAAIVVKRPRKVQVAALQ
# Experiment: holdup assay
# Parameters: key: below the threshold = too weak to quantify, mostly under pKd 3.1 to 4
# Conditions: plain residues with an end cap or a label only (N-terminal biotin on a linker: ahx)
row,pKd,Binder
1,below the threshold,B1
2,below the threshold,B2

# Target: DLG1_3, Q12959
# Sequence (Q12959 457-571): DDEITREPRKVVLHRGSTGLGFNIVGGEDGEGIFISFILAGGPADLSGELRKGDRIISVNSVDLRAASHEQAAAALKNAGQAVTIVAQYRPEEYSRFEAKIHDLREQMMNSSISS
# Experiment: holdup assay
# Parameters: key: below the threshold = too weak to quantify, mostly under pKd 3.1 to 4
# Conditions: plain residues with an end cap or a label only (N-terminal biotin on a linker: ahx)
row,pKd,Binder
1,below the threshold,B1
2,below the threshold,B2

# Target: T11, LIN7B, Q9HAP6
# Experiment: holdup assay
# Parameters: key: below the threshold = too weak to quantify, mostly under pKd 3.1 to 4
# Conditions: plain residues with an end cap or a label only (N-terminal biotin on a linker: ahx)
row,pKd,Binder
1,below the threshold,B1
2,below the threshold,B2

# Target: T12, DVL3, Q92997
# Experiment: holdup assay
# Parameters: key: below the threshold = too weak to quantify, mostly under pKd 3.1 to 4
# Conditions: plain residues with an end cap or a label only (N-terminal biotin on a linker: ahx)
row,pKd,Binder
1,below the threshold,B1
2,below the threshold,B2

# Target: LDB3, O75112
# Sequence (O75112 1-94): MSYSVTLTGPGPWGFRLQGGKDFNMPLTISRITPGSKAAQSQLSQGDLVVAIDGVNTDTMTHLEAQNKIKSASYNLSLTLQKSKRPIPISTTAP
# Experiment: holdup assay
# Parameters: key: below the threshold = too weak to quantify, mostly under pKd 3.1 to 4
# Conditions: plain residues with an end cap or a label only (N-terminal biotin on a linker: ahx)
row,pKd,Binder
1,below the threshold,B1
2,below the threshold,B2

# Target: T13, MPP2, Q14168
# Experiment: holdup assay
# Parameters: key: below the threshold = too weak to quantify, mostly under pKd 3.1 to 4
# Conditions: plain residues with an end cap or a label only (N-terminal biotin on a linker: ahx)
row,pKd,Binder
1,below the threshold,B1
2,below the threshold,B2

# Target: LNX1_2, Q8TBB1
# Sequence (Q8TBB1 371-470): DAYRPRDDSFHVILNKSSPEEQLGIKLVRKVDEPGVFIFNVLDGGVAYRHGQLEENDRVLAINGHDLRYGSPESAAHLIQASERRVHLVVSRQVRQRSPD
# Experiment: holdup assay
# Parameters: key: below the threshold = too weak to quantify, mostly under pKd 3.1 to 4
# Conditions: plain residues with an end cap or a label only (N-terminal biotin on a linker: ahx)
row,pKd,Binder
1,below the threshold,B1
2,below the threshold,B2

# Target: PDLIM1, O00151
# Sequence (O00151 1-87): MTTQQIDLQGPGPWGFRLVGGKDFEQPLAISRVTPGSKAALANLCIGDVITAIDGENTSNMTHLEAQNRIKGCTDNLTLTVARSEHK
# Experiment: holdup assay
# Parameters: key: below the threshold = too weak to quantify, mostly under pKd 3.1 to 4
# Conditions: plain residues with an end cap or a label only (N-terminal biotin on a linker: ahx)
row,pKd,Binder
1,below the threshold,B1
2,3.51,B2

# Target: AHNAK1, Q09666
# Sequence (Q09666 4-100): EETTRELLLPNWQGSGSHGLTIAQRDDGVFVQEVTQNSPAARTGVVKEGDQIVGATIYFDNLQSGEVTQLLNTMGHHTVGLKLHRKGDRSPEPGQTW
# Experiment: holdup assay
# Parameters: key: below the threshold = too weak to quantify, mostly under pKd 3.1 to 4
# Conditions: plain residues with an end cap or a label only (N-terminal biotin on a linker: ahx)
row,pKd,Binder
1,below the threshold,B1
2,below the threshold,B2
